Patent US12060408B2, “Screening assays, modulators and modulation of activation of Receptor for Advanced Glycation End-products (RAGE)” (Monash University, priority 2017, dated 2024)
Entries after “also recorded” stand apart in the source; their conditions may differ. Ends that are not written are not given here.

Tests used:
TRH receptor 1 (TRHR1) = assay: Receptor-HIT BRET, β-arrestin2/Venus with RAGE/Rluc8 and TRH receptor 1; type: cell-based
Source text: (§1) Bioluminescence Resonance Energy Transfer (BRET)
(§2) BRET is an established technology for studying protein-protein proximity in live cells, particularly involving GPCRs (Pfleger and Eidne, 2006). One protein of interest was linked to a bioluminescent donor enzyme, Rluc8, a variant of Renilla luciferase, and a second linked to an acceptor fluorophore, Venus, a variant of green fluorescent protein. If in close proximity (<10 nm), energy resulting from the rapid oxidation of a cell-permeable coelenterazine substrate by the donor can transfer to the acceptor, which in turn fluoresces at a longer characteristic wavelength.
(§3) Plasmids were transiently co-expressed in human embryonic kidney (HEK) 293FT cells and BRET measurements taken at 37° C. using a POLARstar Omega or LUMIstar plate reader (BMG Labtech, Mornington, Victoria, Australia) with 460-490 nm (‘donor emission’) and 520-550 nm (‘acceptor emission’) filters, or a VICTOR Light plate reader (Perkin Elmer, Glen Waverley, Victoria, Australia) with 400-475 nm (‘donor emission’) and 520-540 nm (‘acceptor emission’) filters, or a CLARIOstar plate reader (BMG Labtech, Mornington, Victoria, Australia) with 420-480 nm (‘donor emission’) and 520-620 nm (‘acceptor emission’) filters. […]
(§4) For BRET kinetic assays, the final pre-treatment reading is presented at the zero time point (time of ligand/vehicle addition). […]

CCR2 = target: T1, CCR2 (Homo sapiens, UniProt P41597); assay: Receptor-HIT BRET, β-arrestin2/Venus with RAGE/Rluc8 and CCR2; type: cell-based
T1 construct: expressed in transfected cells; host or cells: HEK293FT, transient
T1 sequence (P41597 whole entry): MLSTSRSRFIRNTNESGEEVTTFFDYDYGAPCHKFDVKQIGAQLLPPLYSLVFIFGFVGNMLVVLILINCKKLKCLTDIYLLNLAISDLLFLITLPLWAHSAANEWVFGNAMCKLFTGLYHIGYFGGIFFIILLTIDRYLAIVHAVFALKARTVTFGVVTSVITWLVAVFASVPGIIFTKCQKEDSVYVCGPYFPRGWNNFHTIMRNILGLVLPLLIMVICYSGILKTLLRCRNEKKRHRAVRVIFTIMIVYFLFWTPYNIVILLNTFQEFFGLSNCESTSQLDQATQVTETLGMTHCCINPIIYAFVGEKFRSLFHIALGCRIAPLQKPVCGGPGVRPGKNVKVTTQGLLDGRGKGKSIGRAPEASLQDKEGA
T1 sequence (P32121 whole entry partner): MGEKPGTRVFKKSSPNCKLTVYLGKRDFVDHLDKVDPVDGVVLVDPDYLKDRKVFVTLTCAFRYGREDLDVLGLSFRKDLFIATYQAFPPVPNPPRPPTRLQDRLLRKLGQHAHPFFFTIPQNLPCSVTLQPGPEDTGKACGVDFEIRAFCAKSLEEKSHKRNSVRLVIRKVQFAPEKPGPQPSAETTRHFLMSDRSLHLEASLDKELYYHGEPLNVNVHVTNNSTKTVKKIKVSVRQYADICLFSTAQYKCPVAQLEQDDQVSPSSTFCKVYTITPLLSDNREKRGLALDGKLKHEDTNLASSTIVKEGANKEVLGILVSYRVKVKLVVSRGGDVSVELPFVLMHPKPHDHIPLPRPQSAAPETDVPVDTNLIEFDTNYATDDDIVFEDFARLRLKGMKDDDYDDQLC
Source text: as §1, §2, §3, §4

orexin receptor 1 (OxR1) = target: T2, orexin receptor 1 (OxR1) (Homo sapiens, UniProt O43613); assay: Receptor-HIT BRET, β-arrestin2/Venus with RAGE/Rluc8 and orexin receptor 1; type: cell-based
T2 construct: expressed in transfected cells; host or cells: HEK293FT, transient
T2 sequence (O43613 whole entry): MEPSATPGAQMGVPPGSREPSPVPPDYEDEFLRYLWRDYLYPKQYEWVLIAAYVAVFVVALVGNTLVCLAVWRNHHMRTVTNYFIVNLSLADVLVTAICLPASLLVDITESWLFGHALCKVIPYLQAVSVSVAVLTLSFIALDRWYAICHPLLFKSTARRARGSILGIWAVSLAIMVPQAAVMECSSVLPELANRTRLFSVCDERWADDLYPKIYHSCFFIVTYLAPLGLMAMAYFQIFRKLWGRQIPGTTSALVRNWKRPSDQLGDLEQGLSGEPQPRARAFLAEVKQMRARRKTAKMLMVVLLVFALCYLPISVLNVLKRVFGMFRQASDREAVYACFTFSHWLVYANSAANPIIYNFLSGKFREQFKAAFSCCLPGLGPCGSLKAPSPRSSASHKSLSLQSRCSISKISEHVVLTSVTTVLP
T2 sequence (P32121 whole entry partner): as the sequence (P32121 whole entry partner) above
Source text: as §1, §2, §3, §4

[1] = tested on: RAGE ligand-dependent activation of RAGE; assay: S100A8/A9-induced NFκB activation (p65 gene expression) in CHO cells expressing RAGE constructs; type: cell-based, human; settings: summary statement, cell system not given
Procedure: (§5) Generation of Transgenic Chinese Hamster Ovary Cells
(§6) 100 ng of AT1R-Rluc8 construct was transfected into CHO cells using Lipofectamine 2000 (Thermo). Stable transfectants were selected using G418. AT1R—CHO were then transiently transfected with RAGE constructs using Lipofectamine 2000 (Invitrogen) and incubated for 16 h. The Homo sapiens AGER transcript variant 1 coding sequence (NM_001136) was synthesised and cloned between the NheI and XbaI sites of pCIneo (Promega) to generate the vector pCIneo-RAGE. This plasmid was then used to generate a library of mutant AGER clones (NP_001127). Primers 1-RAGE-SP-5′ and mCherry-XhoI-NotI-3′ were used to amplify the coding sequence of mCherry from the vector pmCherry-C1. The resultant PCR product was then used as template for a second PCR using primers 2-RAGE-SP-5′ and mCherry-XhoI-NotI-3′. The PCR product generated was digested with NheI and NotI and inserted between the NheI and NotI sites of pCIneo to generate pCIneo-SP-mCherry. The sequence of the insert was confirmed by DNA sequencing (Micromon, Monash University). […]
(§7) Cellular Expression of Pro-Inflammatory Markers and Mediators by Quantitative Real-Time PCR
(§8) After 2 hours of exposure to Ang II (1 μM) or the RAGE ligand, S100A8/A9 (5 ng/ml) cells were placed in Trizol, mRNA extracted and cDNA synthesized. Changes in the gene expression of the NFκB subunit, p65 (RelA) or NFκB-activated target genes (e.g ICAM-1, VCAM-1) were estimated by quantitative real-time RT-PCR, performed using the TaqMan system based on real-time detection of accumulated fluorescence (ABI Prism 7700, Perkin-Elmer Inc, PE Biosystems, Foster City, CA, USA). Gene expression was normalized to 18S mRNA and reported as fold change compared to the level of expression in untreated control mice/cells, which were given an arbitrary value of 1.
To measure the induction of NFκB activity by 1 μM Ang II, or 5 ng/ml of the RAGE-ligand S100A8/A9 as a signalling control, AT1R—CHO cells were transfected with 0.4 μg of plasmids encoding NFκB-SEAP or β-galactosidase (β-Gal) using Lipofectamine 2000 (Invitrogen) as per manufacturer's instructions. After 24 hours, cells transfected with each plasmid combination were then treated with Ang II (1 μM) or left untreated and incubated for 4 hours before cell supernatants and cell lysates were collected. Cell supernatants were analysed using a chemiluminescent SEAP reporter gene assay (Roche Applied Science) to detect SEAP production after treatment. To control for transfection efficiency, cell lysates were assayed for β-Gal using a commercially available kit (Promega).

[2] = tested on: RAGE ligand-independent activation of RAGE by activated AT1R; assay: Ang II-induced NFκB activation (p65 gene expression, SEAP reporter) in AT1R-CHO cells with RAGE constructs; type: cell-based, human; settings: summary statement, cell system not given
Procedure: as §5, §6, §7, §8
Oligopeptides (Cherry-TAT (control), mCherry-TAT-RAGE362-404 and mCherry-S391A-TAT-RAGE362-404 were generated by transformation of the Escherichia coli strain ClearColi BL21 (DE3; Lucigen). A single transformed colony was inoculated into 50 ml 2YT medium containing 100 μg/ml ampicillin and the culture was grown overnight at 37° C. with shaking at 250 rev/min. 10 ml overnight culture was used to inoculate 1 litre 2YT medium containing 100 μg/ml ampicillin and the culture was grown at 37° C. with shaking at 250 rev/min. When the cultures reached an OD600 of 0.8, the temperature was shifted to 15° C. for 30 min after which protein expression was induced by the addition of 1 mM isopropyl β-D-1-thiogalacto-pyranoside (IPTG). Following the addition of IPTG the cultures were grown for ˜16 h at 15° C. with shaking at 250 rev/min. Cells were harvested by centrifugation (3500 g, 4° C., 20 min) and resuspended in ice-cold lysis buffer (50 mM Tris pH 7.4, 300 mM NaCl, 10 mM imidazole and 5 mM beta-mercaptoethanol). The resuspended cells were sonicated and insoluble material was pelleted by centrifugation (13 000 g, 4° C., 30 min). The supernatant was filtered (0.2 μm) and applied onto a gravity-flow column with a 1 ml Ni-NTA Agarose resin bed volume (Qiagen) pre-equilibrated with lysis buffer. After the supernatant was passed over the resin, the column was washed with 100 ml of wash buffer (20 mM imidazole, 50 mM Tris pH 7.4, 150 mM NaCl, 5 mM beta-mercaptoethanol). His-tagged TAT-mCherry and TAT-mCherry-RAGE peptides were eluted from the resin using elution buffer (250 mM imidazole, 50 mM Tris pH 7.4, 150 mM NaCl, 5 mM beta-mercaptoethanol). […]

murine SVEC = assay: Induction of ICAM-1 by Ang II in murine SVEC transfected with RAGE constructs (RT-PCR); type: cell-based, mouse; settings: transfected construct (FIG. 12)
Source text: FIG. 12A. The effect of transfection of murine SVEC with RAGE or RAGE mutants on the induction of ICAM-1 by Ang II compared to vector alone (pc-Neo) as a control, as measured by RT-PCR. Data are mean±SEM; n=6-8 per group. * vs untreated control, # vs neo+Ang II, p<0.05.
FIG. 12B. The effect of transfection with truncated RAGE mutants on the induction of ICAM-1 by Ang II in murine SVEC to identify the smallest fragments with inhibitory activity. Data are mean±SEM; n=6-8 per group, * vs no treatment control, p<0.05.
FIG. 12D. The effect of transfection with single site-specific alanine or lysine mutants of RAGE370-390 on the induction of ICAM-1 by Ang II in murine SVEC. Data are mean±SEM; n=6-8 per group, * vs no treatment control, p<0.05.
as §7
After 2 hours of exposure to Ang II (1 μM) or the RAGE ligand, S100A8/A9 (5 ng/ml) cells were placed in Trizol, mRNA extracted and cDNA synthesized. Changes in the gene expression of the NFκB subunit, p65 (RelA) or NFκB-activated target genes (e.g ICAM-1, VCAM-1) were estimated by quantitative real-time RT-PCR, performed using the TaqMan system based on real-time detection of accumulated fluorescence (ABI Prism 7700, Perkin-Elmer Inc, PE Biosystems, Foster City, CA, USA). […]

RAGE [3] = target: T3, RAGE (Homo sapiens, UniProt Q15109); assay: S100A8/A9-induced pro-inflammatory signalling in RAGE-AT1R-CHO cells; type: cell-based; settings: 1 hour pre-treatment, 1 μg/mL, S100A8/A9 5 ng/ml, FIG. 6A
T3 construct: RAGE-AT1R—CHO cells expressing both full length RAGE and AT1R; expressed in transfected cells
T3 sequence (Q15109 23-404): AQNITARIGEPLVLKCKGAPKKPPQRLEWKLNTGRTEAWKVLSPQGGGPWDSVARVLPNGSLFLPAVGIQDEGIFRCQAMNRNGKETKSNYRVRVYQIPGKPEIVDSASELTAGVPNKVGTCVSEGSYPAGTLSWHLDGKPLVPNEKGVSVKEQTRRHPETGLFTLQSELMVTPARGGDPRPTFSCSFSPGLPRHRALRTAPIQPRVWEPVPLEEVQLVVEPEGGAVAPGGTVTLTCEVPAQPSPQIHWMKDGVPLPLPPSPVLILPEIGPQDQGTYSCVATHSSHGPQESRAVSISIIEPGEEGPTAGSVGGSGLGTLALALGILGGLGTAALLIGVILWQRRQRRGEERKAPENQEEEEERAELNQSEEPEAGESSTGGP
Procedure: (§9) Additional experiments were conducted in the presence and absence of a 1 hour pre-treatment with a neutralizing antibody to RAGE (RAGEab; R&D systems; 1 μg/mL) or soluble RAGE22-331 (sRAGE; 1 μg/mL) prior to exposure to 1 μM Ang II or 5 ng/ml of the RAGE ligand, S100A8/A9.
(§10) To confirm the applicability of inhibition strategies to human tissues, additional experiments were undertaken in primary aortic endothelial cells from humans (Lonza). HAECs were grown in EGM-2 media. In each case cells were treated with mCherry-TAT (control), TAT-mCherry-RAGE362-404 (wild type), or TAT-mCherry-S391A-RAGE362-404 at a dose of 0.4 ng/ml for 30 min prior to treatment with either Ang II (1 μM), or S100A8/A9 (2 μg/ml; R&D systems) for 2h.

RAGE [4] = target: T4, RAGE (Mus musculus, UniProt Q62151); assay: S100A8/A9-induced pro-inflammatory signalling in PMAEC; type: cell-based; settings: 1 hour pre-treatment, 1 μg/mL, S100A8/A9 5 ng/ml, FIG. 6C
T4 construct: in murine SVEC that are endogenously replete in RAGE expression; host or cells: Svec4-10 mouse endothelial cells
T4 sequence (Q62151 23-402): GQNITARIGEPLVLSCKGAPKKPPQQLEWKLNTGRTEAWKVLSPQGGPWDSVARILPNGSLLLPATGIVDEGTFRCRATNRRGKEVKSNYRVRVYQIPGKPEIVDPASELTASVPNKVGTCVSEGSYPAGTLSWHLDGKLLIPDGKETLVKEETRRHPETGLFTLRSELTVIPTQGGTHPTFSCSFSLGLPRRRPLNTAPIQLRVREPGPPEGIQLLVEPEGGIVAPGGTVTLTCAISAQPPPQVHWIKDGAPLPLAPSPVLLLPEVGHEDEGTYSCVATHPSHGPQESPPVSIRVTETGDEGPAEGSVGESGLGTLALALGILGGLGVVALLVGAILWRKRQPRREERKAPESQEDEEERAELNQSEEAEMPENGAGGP
Procedure: as §9
(§11) Additional experiments were conducted in the presence and absence of a 1 hour pre-treatment with a pseudo-substrate for PKCζ (iPKCζ, 5 μM, Tocris).
as §10

RAGE [5] = target: T3, RAGE; assay: Ang II-induced pro-inflammatory signalling (p65-NFκB expression) in AT1R-CHO / RAGE-AT1R-CHO cells; type: cell-based; settings: RAGE-AT1R-CHO cells; 1 hour pre-treatment, 1 μg/mL; 1 μM Ang II; FIG. 6A
RAGE [6] = target: T4, RAGE; assay: Ang II-induced pro-inflammatory signalling in PMAEC; type: cell-based; settings: 1 hour pre-treatment, 1 μg/mL, 1 μM Ang II, FIG. 6B
Procedure: as §9, §11, §10

CCR5 = target: T5, CCR5 (Homo sapiens, UniProt P51681); assay: Receptor-HIT BRET, β-arrestin2/Venus with RAGE/Rluc8 and CCR5; type: cell-based
T5 construct: expressed in transfected cells; host or cells: HEK293FT, transient
T5 sequence (P51681 whole entry): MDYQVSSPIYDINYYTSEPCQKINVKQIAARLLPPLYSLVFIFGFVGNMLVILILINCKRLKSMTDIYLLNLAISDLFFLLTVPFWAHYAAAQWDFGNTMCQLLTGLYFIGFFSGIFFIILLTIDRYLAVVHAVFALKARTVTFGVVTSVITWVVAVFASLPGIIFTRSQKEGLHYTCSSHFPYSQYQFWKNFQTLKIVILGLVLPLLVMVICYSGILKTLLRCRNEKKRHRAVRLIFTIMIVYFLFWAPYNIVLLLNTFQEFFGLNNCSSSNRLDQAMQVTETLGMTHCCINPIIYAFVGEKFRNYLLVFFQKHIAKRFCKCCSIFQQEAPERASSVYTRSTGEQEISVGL
T5 sequence (P32121 whole entry partner): as the sequence (P32121 whole entry partner) above
Source text: as §1, §2, §3, §4

Q: Thyrotrophin-releasing hormone [TRH] was tested. Which “recruitment of βarrestin2/Venus to TRHR1/Rluc8” value (TRH receptor 1 (TRHR1); control) did it give?
A: recruitment

Q: What about the “recruitment of β-arrestin2/Venus proximal to RAGE/Rluc8” value (TRH receptor 1 (TRHR1); in the presence of TRHR1) of the same molecule?
A: weak recruitment

Q: What does the source list for “CCL2: monocyte chemotactic protein-1, cognate ligand of CCR2”?
A: recruitment of βarrestin2/Venus to CCR2/Rluc8 (CCR2; control): recruitment; recruitment of β-arrestin2/Venus proximal to RAGE/Rluc8 (CCR2; in the presence of CCR2): recruitment

Q: What does the source list for “Orexin A (QPLPDCCRQKTCSCRLYELLHGAGNHAAGILTL; not fully specified (residue 1, C-terminus, bridges); cysteine pairing not given here; UniProt O43612 34-66, looked up) [OxA]”?
A: recruitment of βarrestin2/Venus to OxR1/Rluc8 (orexin receptor 1 (OxR1); control): recruitment; recruitment of β-arrestin2/Venus proximal to RAGE/Rluc8 (orexin receptor 1 (OxR1); in the presence of OxR1): recruitment

Q: “Q379EEEEERAELNQ390 (QEEEEERAELNQ; listed as Homo sapiens) [RAGE379-390]” was tested. Which “inhibition of RAGE ligand-dependent activation of wild-type RAGE (S100A8/A9)” value [1] did it give?
A: inhibiting

Q: What about the “inhibition of RAGE ligand-independent activation of wild-type RAGE by activated AT1R” value [2] of the same molecule?
A: inhibiting

Q: And the “inhibition of Ang II-induced ICAM-1 (acting on wild type RAGE)” value (murine SVEC)?
A: does not result in a loss of function

Q: Which results are given for “sRAGE22-331: soluble RAGE decoy with ligand-binding affinity; extracellular ligand-binding V-C1-C2 domains of RAGE”?
A: RAGE ligand-dependent induction of pro-inflammatory signalling by S100A8/A9 (RAGE [3]): block; pro-inflammatory signalling induced by the RAGE ligand S100A8/A9 (RAGE [4]): able to attenuate; RAGE ligand-independent induction of pro-inflammatory signalling by Ang II (RAGE [5]): do not affect; Ang II-AT1R-dependent induction of pro-inflammatory signalling (RAGE [6]): does not attenuate

B1: CCL4: chemokine ligand used to activate CCR5 (protein)
chain: APMGSDPPTACCFSYTARKLPRNFVVDYYETSSLCSQPAVVFQTKRSKQVCADPSESWVQEYVYDLELN
Q: With B1 as the molecule, how does the “recruitment of βarrestin2/Venus to CCR5/Rluc8” value (CCR5; control) read?
A: recruitment

Q: What about the “recruitment of β-arrestin2/Venus proximal to RAGE/Rluc8” value (CCR5; in the presence of CCR5) of the same molecule?
A: particularly weak recruitment; also recorded: Lack of
